Earlier results as cited in PMC8602370.

Molecular target: PARP1 (Homo sapiens) (UniProt P09874)
Sequence (P09874 2-1014): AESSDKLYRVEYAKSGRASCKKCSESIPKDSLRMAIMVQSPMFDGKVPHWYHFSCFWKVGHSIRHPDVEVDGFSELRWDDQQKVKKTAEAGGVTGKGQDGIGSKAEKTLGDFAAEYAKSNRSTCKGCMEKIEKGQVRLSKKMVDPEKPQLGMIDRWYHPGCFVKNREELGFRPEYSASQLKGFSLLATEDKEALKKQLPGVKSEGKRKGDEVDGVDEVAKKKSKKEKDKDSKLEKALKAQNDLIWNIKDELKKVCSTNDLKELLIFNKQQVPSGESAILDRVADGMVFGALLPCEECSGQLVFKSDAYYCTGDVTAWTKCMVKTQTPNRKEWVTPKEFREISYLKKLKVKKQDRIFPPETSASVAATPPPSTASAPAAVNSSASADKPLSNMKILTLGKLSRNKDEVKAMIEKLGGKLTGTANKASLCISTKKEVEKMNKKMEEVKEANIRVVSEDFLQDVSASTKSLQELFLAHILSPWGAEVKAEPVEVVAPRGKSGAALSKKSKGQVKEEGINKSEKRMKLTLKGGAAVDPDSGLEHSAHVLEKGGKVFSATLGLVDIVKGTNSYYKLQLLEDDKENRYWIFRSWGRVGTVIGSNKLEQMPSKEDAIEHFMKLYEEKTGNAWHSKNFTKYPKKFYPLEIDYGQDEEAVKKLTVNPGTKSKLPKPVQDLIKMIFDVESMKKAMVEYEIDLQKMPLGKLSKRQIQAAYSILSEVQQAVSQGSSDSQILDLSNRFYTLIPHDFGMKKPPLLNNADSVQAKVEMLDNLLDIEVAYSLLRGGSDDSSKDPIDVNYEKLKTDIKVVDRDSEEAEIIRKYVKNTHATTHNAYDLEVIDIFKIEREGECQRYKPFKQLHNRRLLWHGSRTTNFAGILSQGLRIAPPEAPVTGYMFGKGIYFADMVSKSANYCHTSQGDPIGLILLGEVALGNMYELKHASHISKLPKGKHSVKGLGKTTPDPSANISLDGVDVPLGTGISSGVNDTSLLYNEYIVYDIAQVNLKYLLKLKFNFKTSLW

Chain of HPF1 (Q9NWY4 whole entry): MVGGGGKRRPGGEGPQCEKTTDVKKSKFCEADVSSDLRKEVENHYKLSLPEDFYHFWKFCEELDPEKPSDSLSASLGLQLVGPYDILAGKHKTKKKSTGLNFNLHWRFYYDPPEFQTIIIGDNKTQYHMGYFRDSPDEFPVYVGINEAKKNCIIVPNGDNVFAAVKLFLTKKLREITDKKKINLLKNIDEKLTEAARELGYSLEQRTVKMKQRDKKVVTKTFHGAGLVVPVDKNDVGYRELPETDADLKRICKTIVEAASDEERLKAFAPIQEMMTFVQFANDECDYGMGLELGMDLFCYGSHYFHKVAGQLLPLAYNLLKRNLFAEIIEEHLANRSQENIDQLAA

- Kd: 3.5 µM
Substance: HPF1 (from UniProt Q9NWY4)
